The target in this assay is hemagglutinin H1 (A/California/04/2009) (influenza A virus A/California/04/2009 …, UniProt P26140 18-529). As to the kind of experiment: yeast surface display titration.

B1: SB24alt1-1 (designed binder)
chain: ASGMLAISMDTDKISNSFEDCKYFQLYVLSAGWTNTIFNDESGKEEIVKMSVDAIICKNISEENYKKFSKKIEIYHAEGDDVDKNISLFLEGELSKISNP
As for B1, the binding result is reported as “no binding”.

B2: SB24solo2 (designed binder)
chain: ASGMLAISMDTDKISNSFEDCKYFLIELKSAGWTNTIFNDESGKEEIVKMGVDAIICKNISEENYKKFSKKIEIYHAEGDDVNKNISLFLEGELSKISNP
For the molecule B2, the binding result was “no binding”.

The record behind these values is patent publication US20170198014A1 (UNIVERSITY WASHINGTON THROUGH ITS CENTER FOR …, published 2017).
